Data taken from patent publication US20160272683A1 (Novo Nordisk, published 2016).
Numbered stars: 1 amine (or outer) side, 2 acyl side, 3 side chain; on linkers, the order of the positions; unused ones are H or OH. Side chains are listed from the residue outwards. Ends that are not written are not given here. * marks the point of attachment. C20 diacid = O=C(O)CCCCCCCCCCCCCCCCCCC(=O)*; C18 diacid = O=C(O)CCCCCCCCCCCCCCCCC(=O)*; C16 diacid = O=C(O)CCCCCCCCCCCCCCC(=O)*; γGlu = O=C(O)[C@H](CCC(=O)[*:2])N[*:1]; C14 diacid = O=C(O)CCCCCCCCCCCCC(=O)*; AEEA = NCCOCCOCC(=O)O

T1: human calcitonin receptor on BHK570/CRE-luc cells (human, UniProt P30988 25-474)
T1 sequence (looked up): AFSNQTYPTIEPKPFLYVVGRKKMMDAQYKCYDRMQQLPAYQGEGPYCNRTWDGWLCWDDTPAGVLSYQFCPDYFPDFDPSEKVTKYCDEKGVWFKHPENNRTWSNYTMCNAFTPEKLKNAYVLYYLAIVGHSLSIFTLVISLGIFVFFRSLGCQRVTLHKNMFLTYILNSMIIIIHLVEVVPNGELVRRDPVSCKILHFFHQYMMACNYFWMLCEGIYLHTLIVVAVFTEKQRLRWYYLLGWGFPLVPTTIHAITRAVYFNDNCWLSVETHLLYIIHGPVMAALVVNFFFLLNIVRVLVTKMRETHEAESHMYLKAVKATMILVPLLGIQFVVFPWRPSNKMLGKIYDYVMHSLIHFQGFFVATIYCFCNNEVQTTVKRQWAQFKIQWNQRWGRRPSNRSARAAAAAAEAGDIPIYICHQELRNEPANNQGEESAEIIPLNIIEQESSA

T2: human amylin 3(a) receptor (human calcitonin receptor co-expressed with RAMP-3) on BHK570/CRE-luc cells (human, UniProt P30988 25-474; O60896 24-148)
T2 sequence (looked up) 1: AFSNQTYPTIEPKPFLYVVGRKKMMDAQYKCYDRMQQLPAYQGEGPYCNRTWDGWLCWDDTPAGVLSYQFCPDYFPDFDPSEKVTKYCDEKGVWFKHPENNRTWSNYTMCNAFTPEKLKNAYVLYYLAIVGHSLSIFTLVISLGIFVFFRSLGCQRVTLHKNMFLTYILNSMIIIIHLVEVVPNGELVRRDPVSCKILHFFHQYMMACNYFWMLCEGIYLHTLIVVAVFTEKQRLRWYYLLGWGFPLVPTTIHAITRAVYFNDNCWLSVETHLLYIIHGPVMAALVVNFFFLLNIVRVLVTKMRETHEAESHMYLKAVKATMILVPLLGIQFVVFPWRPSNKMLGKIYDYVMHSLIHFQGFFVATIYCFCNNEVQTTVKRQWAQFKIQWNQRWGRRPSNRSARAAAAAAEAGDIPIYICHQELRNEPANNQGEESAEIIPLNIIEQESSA
T2 sequence (looked up) 2: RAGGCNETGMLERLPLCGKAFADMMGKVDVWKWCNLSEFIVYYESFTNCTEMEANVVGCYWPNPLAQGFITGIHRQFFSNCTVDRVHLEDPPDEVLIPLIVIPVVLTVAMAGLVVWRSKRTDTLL


Key:
[1] = target: T1, human calcitonin receptor on …; experiment: cell-based or functional assay
[2] = target: T2, human amylin 3(a) receptor (human …); experiment: cell-based or functional assay

Row | Binder | hCTR funct. EC50 (pM), tested with HSA [1] [pM] | hAmylin-R funct. EC50 (pM), tested with HSA [2] [pM]
1 | {C16 diacid-γGlu}-ASELSTAALGRLSAELHELATLPRTETGSGSP-NH2 [[N-terminal(C16 diacid-gGlu), des1, 30S, 31G]mimylin] | 2 | 4
2 | {C18 diacid-γGlu}-ASELSTAALGRLSAELHELATYPRTETGSGSP-NH2 (SMILES CC(C)C[C@H](NC(=O)[C@H](C)NC(=O)[C@H](C)NC(=O)[C@@H](NC(=O)[C@H](CO)NC(=O)[C@H](CC(C)C)NC(=O)[C@H](CCC(=O)O)NC(=O)[C@H](CO)NC(=O)[C@H](C)NC(=O)CC[C@H](NC(=O)CCCCCCCCCCCCCCCCC(=O)O)C(=O)O)[C@@H](C)O)C(=O)NCC(=O)N[C@@H](CCCNC(=N)N)C(=O)N[C@@H](CC(C)C)C(=O)N[C@@H](CO)C(=O)N[C@@H](C)C(=O)N[C@@H](CCC(=O)O)C(=O)N[C@@H](CC(C)C)C(=O)N[C@@H](Cc1c[nH]cn1)C(=O)N[C@@H](CCC(=O)O)C(=O)N[C@@H](CC(C)C)C(=O)N[C@@H](C)C(=O)N[C@H](C(=O)N[C@@H](Cc1ccc(O)cc1)C(=O)N1CCC[C@H]1C(=O)N[C@@H](CCCNC(=N)N)C(=O)N[C@H](C(=O)N[C@@H](CCC(=O)O)C(=O)N[C@H](C(=O)NCC(=O)N[C@@H](CO)C(=O)NCC(=O)N[C@@H](CO)C(=O)N1CCC[C@H]1C(N)=O)[C@@H](C)O)[C@@H](C)O)[C@@H](C)O) [[N-terminal(C18 diacid-gGlu), des1, 23Y, 30S, 31G]mimylin] | 15 | 24
3 | {C16 diacid}-ASELSTAALGRLSAELHELATLPRTETGSGSP-NH2 [[N-terminal(C16 diacid), des1, 30S, 31G]mimylin] | 3 | 4
4 | {C20 diacid-γGlu-AEEA-AEEA-AEEA-AEEA-AEEA}-ASELSTAALGRLSAELHELATLPRTETGSGSP-NH2 [[N-terminal(C20 diacid-gGlu-5xOEG), des1, 30S, 31G]mimylin] | 27 | 66
5 | {C20 diacid-γGlu}-ASELSTAALGRLSAELHELATYPRTETGSGSP-NH2 (SMILES CC(C)C[C@H](NC(=O)[C@H](C)NC(=O)[C@H](C)NC(=O)[C@@H](NC(=O)[C@H](CO)NC(=O)[C@H](CC(C)C)NC(=O)[C@H](CCC(=O)O)NC(=O)[C@H](CO)NC(=O)[C@H](C)NC(=O)CC[C@H](NC(=O)CCCCCCCCCCCCCCCCCCC(=O)O)C(=O)O)[C@@H](C)O)C(=O)NCC(=O)N[C@@H](CCCNC(=N)N)C(=O)N[C@@H](CC(C)C)C(=O)N[C@@H](CO)C(=O)N[C@@H](C)C(=O)N[C@@H](CCC(=O)O)C(=O)N[C@@H](CC(C)C)C(=O)N[C@@H](Cc1c[nH]cn1)C(=O)N[C@@H](CCC(=O)O)C(=O)N[C@@H](CC(C)C)C(=O)N[C@@H](C)C(=O)N[C@H](C(=O)N[C@@H](Cc1ccc(O)cc1)C(=O)N1CCC[C@H]1C(=O)N[C@@H](CCCNC(=N)N)C(=O)N[C@H](C(=O)N[C@@H](CCC(=O)O)C(=O)N[C@H](C(=O)NCC(=O)N[C@@H](CO)C(=O)NCC(=O)N[C@@H](CO)C(=O)N1CCC[C@H]1C(N)=O)[C@@H](C)O)[C@@H](C)O)[C@@H](C)O) [[N-terminal(C20 diacid-gGlu), des1, 23Y, 30S, 31G]mimylin] | 24 | 67
6 | {C18 diacid-γGlu}-ASELSTAALGRLSAELHELATLPRTETGSGSP-NH2 [[N-terminal(C18 diacid-gGlu), des1, 30S, 31G]mimylin] | 11 | 26
7 | {C14 diacid-γGlu}-ASELSTAALGRLSAELHELATLPRTETGSGSP-NH2 [[N-terminal(C14 diacid-gGlu), des1, 30S, 31G]mimylin] | 4 | 4
8 | ASELSTAALGRLSAELHK([γGlu-C20 diacid])LATLPRTETGSGSP-NH2 (N-terminus assumed; SMILES CC(C)C[C@H](NC(=O)[C@H](C)NC(=O)[C@H](C)NC(=O)[C@@H](NC(=O)[C@H](CO)NC(=O)[C@H](CC(C)C)NC(=O)[C@H](CCC(=O)O)NC(=O)[C@H](CO)NC(=O)[C@H](C)N)[C@@H](C)O)C(=O)NCC(=O)N[C@@H](CCCNC(=N)N)C(=O)N[C@@H](CC(C)C)C(=O)N[C@@H](CO)C(=O)N[C@@H](C)C(=O)N[C@@H](CCC(=O)O)C(=O)N[C@@H](CC(C)C)C(=O)N[C@@H](Cc1c[nH]cn1)C(=O)N[C@@H](CCCCNC(=O)CC[C@H](NC(=O)CCCCCCCCCCCCCCCCCCC(=O)O)C(=O)O)C(=O)N[C@@H](CC(C)C)C(=O)N[C@@H](C)C(=O)N[C@H](C(=O)N[C@@H](CC(C)C)C(=O)N1CCC[C@H]1C(=O)N[C@@H](CCCNC(=N)N)C(=O)N[C@H](C(=O)N[C@@H](CCC(=O)O)C(=O)N[C@H](C(=O)NCC(=O)N[C@@H](CO)C(=O)NCC(=O)N[C@@H](CO)C(=O)N1CCC[C@H]1C(N)=O)[C@@H](C)O)[C@@H](C)O)[C@@H](C)O) [[des1, 19K(C20 diacid-gGlu), 30S, 31G]mimylin] | 28 | 49
9 | {C14 diacid}-ASELSTAALGRLSAELHELATLPRTETGSGSP-NH2 [[N-terminal(C14 diacid), des1, 30S, 31G]mimylin] | 4 | 6
10 | ASELSTAALGRLSAK([γGlu-C20 diacid])LHELATLPRTETGSGSP-NH2 (N-terminus assumed; SMILES CC(C)C[C@H](NC(=O)[C@H](C)NC(=O)[C@H](C)NC(=O)[C@@H](NC(=O)[C@H](CO)NC(=O)[C@H](CC(C)C)NC(=O)[C@H](CCC(=O)O)NC(=O)[C@H](CO)NC(=O)[C@H](C)N)[C@@H](C)O)C(=O)NCC(=O)N[C@@H](CCCNC(=N)N)C(=O)N[C@@H](CC(C)C)C(=O)N[C@@H](CO)C(=O)N[C@@H](C)C(=O)N[C@@H](CCCCNC(=O)CC[C@H](NC(=O)CCCCCCCCCCCCCCCCCCC(=O)O)C(=O)O)C(=O)N[C@@H](CC(C)C)C(=O)N[C@@H](Cc1c[nH]cn1)C(=O)N[C@@H](CCC(=O)O)C(=O)N[C@@H](CC(C)C)C(=O)N[C@@H](C)C(=O)N[C@H](C(=O)N[C@@H](CC(C)C)C(=O)N1CCC[C@H]1C(=O)N[C@@H](CCCNC(=N)N)C(=O)N[C@H](C(=O)N[C@@H](CCC(=O)O)C(=O)N[C@H](C(=O)NCC(=O)N[C@@H](CO)C(=O)NCC(=O)N[C@@H](CO)C(=O)N1CCC[C@H]1C(N)=O)[C@@H](C)O)[C@@H](C)O)[C@@H](C)O) [[des1, 16K(C20 diacid-gGlu), 30S, 31G]mimylin] | 48 | 57
11 | ASK([γGlu-C20 diacid])LSTAALGRLSAELHELATLPRTETGSGSP-NH2 (N-terminus assumed; SMILES CC(C)C[C@H](NC(=O)[C@H](C)NC(=O)[C@H](C)NC(=O)[C@@H](NC(=O)[C@H](CO)NC(=O)[C@H](CC(C)C)NC(=O)[C@H](CCCCNC(=O)CC[C@H](NC(=O)CCCCCCCCCCCCCCCCCCC(=O)O)C(=O)O)NC(=O)[C@H](CO)NC(=O)[C@H](C)N)[C@@H](C)O)C(=O)NCC(=O)N[C@@H](CCCNC(=N)N)C(=O)N[C@@H](CC(C)C)C(=O)N[C@@H](CO)C(=O)N[C@@H](C)C(=O)N[C@@H](CCC(=O)O)C(=O)N[C@@H](CC(C)C)C(=O)N[C@@H](Cc1c[nH]cn1)C(=O)N[C@@H](CCC(=O)O)C(=O)N[C@@H](CC(C)C)C(=O)N[C@@H](C)C(=O)N[C@H](C(=O)N[C@@H](CC(C)C)C(=O)N1CCC[C@H]1C(=O)N[C@@H](CCCNC(=N)N)C(=O)N[C@H](C(=O)N[C@@H](CCC(=O)O)C(=O)N[C@H](C(=O)NCC(=O)N[C@@H](CO)C(=O)NCC(=O)N[C@@H](CO)C(=O)N1CCC[C@H]1C(N)=O)[C@@H](C)O)[C@@H](C)O)[C@@H](C)O) [[des1, 4K(C20 diacid-gGlu), 30S, 31G]mimylin] | 30 | 74
12 | {C20 diacid-γGlu}-AASELSTAALGRLSAELHELATYPRTETGSGSP-NH2 (SMILES CC(C)C[C@H](NC(=O)[C@H](C)NC(=O)[C@H](C)NC(=O)[C@@H](NC(=O)[C@H](CO)NC(=O)[C@H](CC(C)C)NC(=O)[C@H](CCC(=O)O)NC(=O)[C@H](CO)NC(=O)[C@H](C)NC(=O)[C@H](C)NC(=O)CC[C@H](NC(=O)CCCCCCCCCCCCCCCCCCC(=O)O)C(=O)O)[C@@H](C)O)C(=O)NCC(=O)N[C@@H](CCCNC(=N)N)C(=O)N[C@@H](CC(C)C)C(=O)N[C@@H](CO)C(=O)N[C@@H](C)C(=O)N[C@@H](CCC(=O)O)C(=O)N[C@@H](CC(C)C)C(=O)N[C@@H](Cc1c[nH]cn1)C(=O)N[C@@H](CCC(=O)O)C(=O)N[C@@H](CC(C)C)C(=O)N[C@@H](C)C(=O)N[C@H](C(=O)N[C@@H](Cc1ccc(O)cc1)C(=O)N1CCC[C@H]1C(=O)N[C@@H](CCCNC(=N)N)C(=O)N[C@H](C(=O)N[C@@H](CCC(=O)O)C(=O)N[C@H](C(=O)NCC(=O)N[C@@H](CO)C(=O)NCC(=O)N[C@@H](CO)C(=O)N1CCC[C@H]1C(N)=O)[C@@H](C)O)[C@@H](C)O)[C@@H](C)O) [[N-terminal(C20 diacid-gGlu), 1A, 23Y, 30S, 31G]mimylin] | 51 | 82
13 | {C18 diacid}-ASELSTAALGRLSAELHELATLPRTETGSGSP-NH2 [[N-terminal(C18 diacid), des1, 30S, 31G]mimylin] | 8 | 9
